These results are taken from patent US10052364B2, “Osteocalcin as a treatment for cognitive disorders” (THE TRUSTEES OF COLUMBIA UNIVERSITY IN THE CITY OF NEW YORK, priority 2013, dated 2018).

The nature of data set [1]: Ex vivo dual perfusion of the mouse placenta (maternal-fetal transport). It is filed as in vitro ADME. The note with it: 300 ng/ml through the uterine artery. As to the method:
FIG. 6. Maternal osteocalcin favors fetal neurogenesis. (A) Expression of osteocalcin (qPCR) in bone, brain, and placenta of WT and Ocn^−/− newborns (postnatal day [P] 0) and embryos (E13.5-E18.5). (B) Osteocalcin circulating levels in WT or Ocn^−/− newborns (P0) and embryos (E13.5-E18.5). (C) Ex vivo dual-perfusion system that monitors the transport of osteocalcin across the placenta. Uncarboxylated mouse osteocalcin (300 ng/ml) was injected through the uterine artery in placentas obtained from WT mice at E14.5, E15.5, and E18.5 of pregnancy. Osteocalcin in fetal eluates is represented as % of maternal input. (D) Circulating levels of osteocalcin in WT embryos originating from WT or Ocn^+/− mothers, of Ocn^+/− embryos originating from Ocn^+/− Ocn^−/− mothers, and of Ocn^−/− embryos originating from Ocn^+/− or Ocn^−/− mothers. Measurements were performed at E16.5 and E18.5. […]
Maternal-fetal transport of osteocalcin was monitored using ex vivo dual perfusion of the mouse placenta (Goeden & Bonnin, 2013, Nature Protocols 8:66-74). […] Osteocalcin transport through the placenta was analyzed by measuring the concentration of osteocalcin present in fetal eluates obtained through the umbilical vein, each time point (1-9) corresponding to a 10 minute collection period (at 5 μl/min). […]

Data set [2] concerns brainstem and midbrain explants from WT and Gprc6a-/- mice. Put plainly: Gene expression (qPCR) in brainstem and midbrain explants. The format is cell-based, mouse. As to the method:
For gene expression studies, RNA was isolated from primary neurons or tissue using TRIZOL® (Invitrogen). cDNA synthesis was performed following a standard protocol from Invitrogen and qPCR analyses were done using specific quantitative PCR primers from SABiosciences (www.sabiosciences.com/RT2PCR.php).
Brains were dissected and incubated for 30 minutes in ice cold oxygenated artificial cerebrospinal fluid (ACSF). Brains were then sliced at 500 μm at the midbrain, −1.55 to −2.35 mm from the bregma, and at the level of the brainstem, from −4.04 to −4.48 mm and from −4.60 to −5.20 mm from the bregma, to include the median and dorsal raphe, respectively. These slices were incubated in ACSF for 1 h, constantly oxygenated (95% 02 and 5% CO2) for 4 h, after which they were treated with either osteocalcin (10 ng/ml) or PBS for four hours. Expression of Tph2, TH, GAD1, GAD2, and Ddc was measured by qPCR.
To determine if osteocalcin acts directly on neurons to modulate neurotransmitter synthesis, several types of assays were performed. First, brainstem and midbrain explants from WT and Gprc6a^−/− mice were generated. Brains were sliced (500 μm) at the level of the median and dorsal raphe of the brainstem (from −4.04 to −4.48 mm and from −4.60 to −5.20 mm, respectively), so that they would be enriched in serotonin-producing neurons, as well as at the level of substantia nigrae and ventral tegmental areas (VTA) of the midbrain (from −1.55 to −2.35 mm and from −2.55 to −3.25 mm, respectively). Enrichment in serotoninergic and catecholaminergic neurons in these explants was verified by their high Tph2 and Th expression. While leptin, used here as a positive control, reduced, as it should, Tph2 expression in WT or Gprc6a^−/− brainstem explants, osteocalcin (3 ng/ml) increased expression of this gene 2.5 fold in both WT and Gprc6a^−/− explants. (FIG. 3D). Additionally, osteocalcin increased Th expression in midbrain explants and decreased Gad1 expression in both WT and in Gprc6a^−/− hindbrain explants (FIG. 3D). Second, the cultured WT and Gprc6a^−/− mouse primary hindbrain neurons (MPHN) were treated with osteocalcin (3 ng/ml). […] Third, to further confirm that osteocalcin signals in neurons of the hindbrain, calcium flux in MPHN treated with undercarboxylated or carboxylated osteocalcin (FIG. 3F) was measured. […] Moreover, osteocalcin inhibits the action potential frequency of the GABAergic interneurons of the hindbrain (FIG. 3H).
In general terms: In qPCR the cycle at which signal appears reflects the starting amount.

B1: uncarboxylated osteocalcin: Recombinant osteocalcin bacterially produced, cleaved from the GST subunit; completely undercarboxylated at all three sites (protein, listed as Homo sapiens)
chain: MRALTLLALLALAALCIAGQAGAKPSGAESSKGAAFVSKQEGSEVVKRPRRYLYQWLGAPVPYPDPLEPRREVCELNPDCDELADHIGFQEAYRRFYGPV
modifications: uncarboxylated
notes: Recombinant osteocalcin bacterially produced, cleaved from the GST subunit; completely undercarboxylated at all three sites
B1: the “transport across the placenta, onset” value in data set [1] (WT placentas) was “begins to cross the placenta at day 14.5 of gestation”. In addition, the “transplacental transfer to the fetal circulation at day 15.5 or 18.5 of gestation” value in data set [1] (compared with day 14.5) is given as “larger transplacental transfer”. Also, the “Tph2 expression in brainstem explants” value in data set [2] (osteocalcin 3 ng/ml, WT and Gprc6a-/- explants) was found to be 2.5 fold. Besides, the “Gad1 expression in hindbrain explants” value in data set [2] (osteocalcin, WT and Gprc6a-/- hindbrain explants) is “decreased”. Further, the “Th expression in midbrain explants” value in data set [2] (osteocalcin, midbrain explants) was “increased”.
